We go through 10 molecules from patent US20210347873A1 (SHANGHAI PHARMAEXPLORER, published 2021).

In assay [1] the target is T1, biotinylated hBLyS-ECD (human, UniProt Q9Y275 134-285, biotinylated with Biotin-X-X-NHS (molar ratio 7:1), sites not stated).
T1 construct: The hBLyS-ECD of Embodiment 1 after biotinylation (Embodiment 2); also called biotinylated immunogen; BLyS protein; not shown: His tag of the pCPC vector
Kind of assay: ELISA: biotinylated hBLyS-ECD captured on streptavidin, antibody titrated, HRP secondary antibody.

The target in assay [2] is T2, biotinylated hBLyS-ECD (human, UniProt Q9Y275 134-285, biotinylated with Biotin-X-X-NHS (molar ratio 7:1); sites not stated).
T2 construct: also called biotinylated immunogen; biotinylated hBLvS-ECD
The assay is described as follows: competition ELISA; competitor 97A3C2H4. As for the experimental part:
(§1) The purified human BLyS antibody and hybridoma antibody were subjected to competitive enzyme-linked immunosorbent assay and the epitopes binding by different antibodies were analyzed.
(§2) Purified BLyS antibody was first diluted to a final concentration of 1.0 μg/mL with PBS, then aliquoted into a 96-well ELISA plate at 50 μL per well, and the plate was subsequently sealed with plastic film and incubated at 4° C. overnight. On the next day the plate was rinsed four times with the plate washing buffer [PBS buffer containing 0.05% (v/v) Tween20] and mixed with blocking solution [PBS buffer containing 0.05% (v/v) Tween20 and 1% (w/w) BSA], and then blocked at 37° C. for 1 hour. The blocking solution was removed, and the competitive antibody and IgG control were diluted to a final concentration of 40 μg/mL with PBS and then aliquoted into the 96-well ELISA plate at 50 μL per well. The biotinylated hBLyS-ECD was then diluted with PBS to a final concentration of 2 ng/mL and pipetted into the 96-well ELISA plate at 50 μL per well. The final concentration of competitive antibody and hBLyS-ECD was 20 μg/mL and 1 ng/mL, respectively. After incubation at 37° C. for 1 hour, the plate was rinsed four times with the plate washing buffer [PBS buffer containing 0.05% (v/v) Tween20]. 100 μL per well of HRP-labeled (horseradish peroxidase) streptavidin (purchased from Sigma) was added into the plate and the plate was incubated at 37° C. for 1 hour. The plate was then washed four times with the plate washing buffer [PBS buffer containing 0.05% (v/v) Tween20]. 100 μL of TMB substrate was aliquoted into each well and after incubation at room temperature for 5 minutes, 100 μL of stop solution (1.0 N HCl) was aliquoted into each well. A₄₅₀ₙₘ values were read by an ELISA plate reader (SpectraMax M5e, purchased from Molecular Device) and the results were shown in Tables 18A-18B. […] The data shown in the table is the inhibitory rate (%) of the binding level of the original antibody to hBLyS-ECD after addition of the competitive antibody.

In assay [3] the target is T2, biotinylated hBLyS-ECD. The assay is described as follows: competition ELISA; competitor 8E7D9C7F5. The method, then:
as §1, §2

For assay [4], the target named is T2, biotinylated hBLyS-ECD. Kind of assay: competition ELISA; competitor 67A2E1D10. The method, then: as §1, §2
In assay [5] the target is T2, biotinylated hBLyS-ECD. The assay is described as follows: competition ELISA; competitor 35E6F7C3. As for the experimental part:
as §1, §2

Assay [6] deals with T2, biotinylated hBLyS-ECD. Kind of assay: competition ELISA; competitor 111D10D6G3. As for the experimental part:
as §1, §2

In assay [7] the target is T2, biotinylated hBLyS-ECD. Kind of assay: competition ELISA; competitor 78C11D2D12. As for the experimental part:
as §1, §2

The target of assay [8] is T2, biotinylated hBLyS-ECD. Kind of assay: competition ELISA; competitor 93C6F10D3. The method, then: as §1, §2
The target in assay [9] is extracellular domain of human BLyS protein (hBLyS-ECD), His-tagged, Ala134-Leu285 (human, UniProt Q9Y275 134-285). Kind of assay: cell-based or functional assay.
Chain of extracellular domain of human BLyS protein (hBLyS-ECD), His-tagged, Ala134-Leu285 (Q9Y275 134-285): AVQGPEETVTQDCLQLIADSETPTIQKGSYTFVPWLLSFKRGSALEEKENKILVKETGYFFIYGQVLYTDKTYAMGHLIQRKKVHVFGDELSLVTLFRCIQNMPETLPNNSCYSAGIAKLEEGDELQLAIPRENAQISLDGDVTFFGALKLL

T2 sequence (Q9Y275 134-285): as above
T1 sequence (Q9Y275 134-285): as above

B1: c93C6F10D3 (antibody, human IgG1, V domains shown)
VH: EVQLVESGGGLVTPGGSLKLSCVASGFAFSTYGMSWVRQTPERRLEWVAYISGGGGSIYYPDSVKGRFTISRDNAKNILYLQMSSLKSEDTAMYHCTRHPDLLLRYDYALDHWGQGTSVTVSS
VL: DIQMTQSPASLSASVGETVTITCRASENIHIYLAWYQQKQGKSPQLLVYNGKTLADGVPSRFSGSGSGTQYSLKINTLQPEDFGNYYCQHFWNSTWTFGGGTKLEIK
notes: also called BLyS chimeric antibody
B1: the “EC50 (read off the curve)” value with biotinylated hBLyS-ECD [1] is roughly 0.07 nM.

B2: 93C6F10D3 (antibody, V domains shown)
VH: EVQLVESGGGLVTPGGSLKLSCVASGFAFSTYGMSWVRQTPERRLEWVAYISGGGGSIYYPDSVKGRFTISRDNAKNILYLQMSSLKSEDTAMYHCTRHPDLLLRYDYALDHWGQGTSVTVSS
VL: DIQMTQSPASLSASVGETVTITCRASENIHIYLAWYQQKQGKSPQLLVYNGKTLADGVPSRFSGSGSGTQYSLKINTLQPEDFGNYYCQHFWNSTWTFGGGTKLEIK
notes: Mouse hybridoma antibody purified on Protein G
Consider B2, for which the “inhibitory rate (%)” value with biotinylated hBLyS-ECD [2] is 90%; with biotinylated hBLyS-ECD [3] it was 94%; in the assay with biotinylated hBLyS-ECD [4], 97%; with biotinylated hBLyS-ECD [5], 42%; with biotinylated hBLyS-ECD [6], 95%; with biotinylated hBLyS-ECD [7], 92%. In the assay with biotinylated hBLyS-ECD [8], the “inhibitory rate (%)” value came out at 79%.

B3: 8E7D9C7F5 (antibody, V domains shown)
VH: QVQLQQSGVELARPGASVKLSCKASGYTFTSYGISWVKQRTGQALEWIGEIYPRSGNTYYNEKFKGKATLTADKSSSTAYMELRSLTSEDSAVYFCARSGPITTLVATDYGMDYWGQGTSVTVSS
VL: DIVLTQSPASLAVSLGQRATISCRASKSVSTSSYSYMHWYQQKPGQPPKLLIKFASNLESGVPARFSGSGSGTDFTLNIHPVEEEDAATYYCQHSREFPYTFGGGTKLEIK
notes: as for B2
With B3, the “inhibitory rate (%)” value in the assay with biotinylated hBLyS-ECD [2] was found to be 89%; in the assay with biotinylated hBLyS-ECD [3], 92%; in the assay with biotinylated hBLyS-ECD [4] it was 96%; in the assay with biotinylated hBLyS-ECD [5] it was 40%; in the assay with biotinylated hBLyS-ECD [6], 96%; in the assay with biotinylated hBLyS-ECD [7], 94%. Also, the “inhibitory rate (%)” value with biotinylated hBLyS-ECD [8] was 85%.

B4: 97A3C2H4 (antibody, V domains shown)
VH: EVKLVESGGGLVQPGGSLKLSCAASGFTFSTYTMSWVRQTPEKRLEWVAYISYGGGSTSYPDTVKGRFTISRDNAKNTLYLQMSSLKSEDTAIYYCTRHVTVVENSMDYWGQGTSVTVSS
VL: DILLTQSPDILSVSPGERVSFSCRASQSIGTSIHWYQQRTNGSPRLLIKYVSESFSGTPSRFSGSGSGTAFTLTINSVESEDIADYYCQQTHSWPWTFGGGTKLEIK
notes: as for B2
For B4, the “inhibitory rate (%)” value in the assay with biotinylated hBLyS-ECD [2] came out at 89%; with biotinylated hBLyS-ECD [3], 93%; in the assay with biotinylated hBLyS-ECD [4], 96%; in the assay with biotinylated hBLyS-ECD [5], 55%; with biotinylated hBLyS-ECD [6], 93%; with biotinylated hBLyS-ECD [7], 96%. In the assay with biotinylated hBLyS-ECD [8], the “inhibitory rate (%)” value was 93%.

B5: 35E6F7C3 (antibody, V domains shown)
VH: EVQLQQSGAELVKPGASVKLSCTAAGFNIQDTYIHWVKQRPEQGLEWIGRIDPANANTVYDPKFQGKATITADTSSNTAYLQVSSLTSEDTAVYYCASPVITAGFAYWGQGTLVTVSA
VL: QIVLTQSPAIMSASPGEKVTMTCGASSSVNYVHWYQQKSGTSPKRWIYDTSKLASGVPARFSGSGSGTSYSLTISSMEAEDAATYYCQQWTRSPLTFGAGTKVELK
notes: as for B2
In the case of B5, the “inhibitory rate (%)” value in the assay with biotinylated hBLyS-ECD [2] worked out at 26%; with biotinylated hBLyS-ECD [3], 27%; in the assay with biotinylated hBLyS-ECD [4], 33%; in the assay with biotinylated hBLyS-ECD [5], 91%; in the assay with biotinylated hBLyS-ECD [6], 38%; with biotinylated hBLyS-ECD [7] it was 36%. The “inhibitory rate (%)” value with biotinylated hBLyS-ECD [8] was found to be 33%.

B6: L1D12 (antibody, V domains shown)
VH: QVQLVQSGGGLVQPGGSLRLSCAASGFTVSSNYMSWVRQAPGKGLEWVSVIYSGGSTYYADSVKGRFTISRDNSKNTLYLQMNSLRAEDTAVYYCARGFHDILTGYGMDVWGQGTTVTVSS
VL: SSELTQDPAVSVALGQTVRITCQGDSLRNYYAGWYQQKPGQAPVLVIYGKNNRPSGIPDRFSGSSSGNTASLTITGTQAEDEADYYCSSRDNSGTHLVEFGGGTKLTVL
With B6, the “Proportion of B lymphocytes in splenocytes (%), in vivo in mice” value in [9] is 26.8%.

B7: c67A2E1D10 (antibody, human IgG1, V domains shown)
VH: EVQLQQSGAELVKPGASVKLSCTASGFNIKNYYMHWVKQRTEEGLEWIGRIDPEDGETKYAPKFQAKATITADTSSNTAYLQLSSLTSEDTAVYFCARKGYYGNYGAWFAYWGQGTLVTVSA
VL: DIQMTQSPASLSVSVGETVTITCRASEDLYSNLAWYQQKQGKSPQLLVYAATFLADGVPSRFSGSGSGTQYSLKINSLQSEDFGNYYCQHFWGTPPTFGGGTKLEIK
notes: as for B1
As to B7, in the assay with biotinylated hBLyS-ECD [1], the “EC50 (read off the curve)” value is roughly 0.1 nM.

B8: 67A2E1D10 (antibody, V domains shown)
VH: EVQLQQSGAELVKPGASVKLSCTASGFNIKNYYMHWVKQRTEEGLEWIGRIDPEDGETKYAPKFQAKATITADTSSNTAYLQLSSLTSEDTAVYFCARKGYYGNYGAWFAYWGQGTLVTVSA
VL: DIQMTQSPASLSVSVGETVTITCRASEDLYSNLAWYQQKQGKSPQLLVYAATFLADGVPSRFSGSGSGTQYSLKINSLQSEDFGNYYCQHFWGTPPTFGGGTKLEIK
notes: as for B2
Turning to B8, the “inhibitory rate (%)” value with biotinylated hBLyS-ECD [2] stood at 75%; in the assay with biotinylated hBLyS-ECD [3] it was 63%; with biotinylated hBLyS-ECD [4] it was 93%; with biotinylated hBLyS-ECD [5], 18%; with biotinylated hBLyS-ECD [6] it was 86%; in the assay with biotinylated hBLyS-ECD [7] it was 80%. For the same molecule, the “inhibitory rate (%)” value in the assay with biotinylated hBLyS-ECD [8] was determined as 44%.

B9: 111D10D6G3 (antibody, V domains shown)
VH: QVQLQQPGAELVKPGASVKMSCKASGYTFTRHWITWVKQRPGQGLEWIGDIFPGSGSINYNEKFKSEATLTVEKSSSTAYMQLSSLTSEDSAVYYCARGDVDVWGTGTTVTVSS
VL: DIQMTQSPSSLSASLGERVSLTCRASQEIRGYLSWLQQKPNGTIKRLIYAASTLDSGVPKRFSATRSGSDFSLTISSLESEDFADYYCLQYASYPFTFGSGTKLEIK
notes: as for B2
For the molecule B9, the “inhibitory rate (%)” value with biotinylated hBLyS-ECD [2] was found to be 26%; in the assay with biotinylated hBLyS-ECD [3], 27%; in the assay with biotinylated hBLyS-ECD [4], 96%; with biotinylated hBLyS-ECD [5], 22%; in the assay with biotinylated hBLyS-ECD [6], 95%; in the assay with biotinylated hBLyS-ECD [7], 86%. Further, in the assay with biotinylated hBLyS-ECD [8], the “inhibitory rate (%)” value turned out to be 41%.

B10: 78C11D2D12 (antibody, V domains shown)
VH: QVQLQQSGAELVRPGTSVKISCKASGYAFTNYWLGWVKQRPGHGLEWIGDIYPGSGNTYYNEKFKGKATLTADKSSSTAYMQLSSLTSEDSAVFFCAAYLYAMDYWGQGTSVTVSS
VL: QIVLTQSPAIMSASPGEKVTITCSASSSVSYMHWFQQKPGTSPKLWIYSASNLASGVPARFSGSGSGTSYSLTISRMEAEDAATYYCQQRGSYPFTFGSGTKLEIK
notes: as for B2
Take B10: the “inhibitory rate (%)” value with biotinylated hBLyS-ECD [2] is 46%; with biotinylated hBLyS-ECD [3] it was 37%; in the assay with biotinylated hBLyS-ECD [4] it was 95%; with biotinylated hBLyS-ECD [5], 29%; in the assay with biotinylated hBLyS-ECD [6] it was 95%; with biotinylated hBLyS-ECD [7] it was 88%. For the same molecule, the “inhibitory rate (%)” value in the assay with biotinylated hBLyS-ECD [8] came to 58%.
